Molecular target: SOD-proinsulin hybrid polypeptide expressed by plasmid pBAST-R (SOD-Insulin B chain-Lys-Arg-Insulin A chain hybrid polypeptide) (human)

human insulin generation after enzymatic cleavage (radioimmunoassay and RP-HPLC) (% of the theoretical yield): 80
Substance: trypsin (Sigma) (enzyme)

From patent US6001604
